For experiment [1], the target named is mutants (MLC1 mutants of Fig. 3A). Kind of experiment: co-IP; cell surface immunoprecipitation (cs-IP): anti-GlialCAM Ab bound to live HeLa cells 45 min on ice, unbound Ab washed off, lysis (0.4% NP-40 in co-IP assays), MLC1/GlialCAM complex precipitated, Western blot; signals normalised to precipitated MLC1; for Fig. 7G cells with siUbr1 or siNT and Flag-Ubr1-wt or -CI. (A western blot detects proteins with antibodies after separation by electrophoresis.)

The target in experiment [2] is T1, HA-MLC1-S280L-Bir* (human (by the printed GeneID 23209; the …, UniProt Q15049 1-377, S280L).
T1 construct: MLC1, GeneID 23209, disease-causing variant S280L, as a chimera with Bir*; also called SL-b
T1 sequence (looked up): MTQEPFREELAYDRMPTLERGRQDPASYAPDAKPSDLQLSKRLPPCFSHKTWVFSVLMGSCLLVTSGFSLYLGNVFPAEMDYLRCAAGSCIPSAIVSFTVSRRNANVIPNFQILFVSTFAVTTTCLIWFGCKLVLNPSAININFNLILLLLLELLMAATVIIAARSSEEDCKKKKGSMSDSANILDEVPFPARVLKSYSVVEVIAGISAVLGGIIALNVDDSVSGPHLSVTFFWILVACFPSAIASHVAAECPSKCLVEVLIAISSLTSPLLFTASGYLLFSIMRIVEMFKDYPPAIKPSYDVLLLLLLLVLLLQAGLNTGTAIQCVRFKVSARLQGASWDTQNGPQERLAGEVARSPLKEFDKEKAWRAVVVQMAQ
In words: proximity labelling; proximity biotinylation with MLC1-Bir* chimera as bait, 50 µM biotin, cs-IP with anti-GlialCAM Ab, biotinylated proteins recovered on streptavidin/neutravidin beads, Western blot for Ubr1; normalised for the PM amount of MLC1. As to conditions: partners not purified.

“CHIP (C-terminus of Hsc70-interacting protein) (from UniProt Q9UNE7 1-303)”: the fold association against MLC1-wt in experiment [1] fell in the range of 2 to 5 fold.

B1: endogenous Ubr1 (enzyme, UniProt Q8IWV7 1-1749, looked up)
chain: MADEEAGGTERMEISAELPQTPQRLASWWDQQVDFYTAFLHHLAQLVPEIYFAEMDPDLEKQEESVQMSIFTPLEWYLFGEDPDICLEKLKHSGAFQLCGRVFKSGETTYSCRDCAIDPTCVLCMDCFQDSVHKNHRYKMHTSTGGGFCDCGDTEAWKTGPFCVNHEPGRAGTIKENSRCPLNEEVIVQARKIFPSVIKYVVEMTIWEEEKELPPELQIREKNERYYCVLFNDEHHSYDHVIYSLQRALDCELAEAQLHTTAIDKEGRRAVKAGAYAACQEAKEDIKSHSENVSQHPLHVEVLHSEIMAHQKFALRLGSWMNKIMSYSSDFRQIFCQACLREEPDSENPCLISRLMLWDAKLYKGARKILHELIFSSFFMEMEYKKLFAMEFVKYYKQLQKEYISDDHDRSISITALSVQMFTVPTLARHLIEEQNVISVITETLLEVLPEYLDRNNKFNFQGYSQDKLGRVYAVICDLKYILISKPTIWTERLRMQFLEGFRSFLKILTCMQGMEEIRRQVGQHIEVDPDWEAAIAIQMQLKNILLMFQEWCACDEELLLVAYKECHKAVMRCSTSFISSSKTVVQSCGHSLETKSYRVSEDLVSIHLPLSRTLAGLHVRLSRLGAVSRLHEFVSFEDFQVEVLVEYPLRCLVLVAQVVAEMWRRNGLSLISQVFYYQDVKCREEMYDKDIIMLQIGASLMDPNKFLLLVLQRYELAEAFNKTISTKDQDLIKQYNTLIEEMLQVLIYIVGERYVPGVGNVTKEEVTMREIIHLLCIEPMPHSAIAKNLPENENNETGLENVINKVATFKKPGVSGHGVYELKDESLKDFNMYFYHYSKTQHSKAEHMQKKRRKQENKDEALPPPPPPEFCPAFSKVINLLNCDIMMYILRTVFERAIDTDSNLWTEGMLQMAFHILALGLLEEKQQLQKAPEEEVTFDFYHKASRLGSSAMNIQMLLEKLKGIPQLEGQKDMITWILQMFDTVKRLREKSCLIVATTSGSESIKNDEITHDKEKAERKRKAEAARLHRQKIMAQMSALQKNFIETHKLMYDNTSEMPGKEDSIMEEESTPAVSDYSRIALGPKRGPSVTEKEVLTCILCQEEQEVKIENNAMVLSACVQKSTALTQHRGKPIELSGEALDPLFMDPDLAYGTYTGSCGHVMHAVCWQKYFEAVQLSSQQRIHVDLFDLESGEYLCPLCKSLCNTVIPIIPLQPQKINSENADALAQLLTLARWIQTVLARISGYNIRHAKGENPIPIFFNQGMGDSTLEFHSILSFGVESSIKYSNSIKEMVILFATTIYRIGLKVPPDERDPRVPMLTWSTCAFTIQAIENLLGDEGKPLFGALQNRQHNGLKALMQFAVAQRITCPQVLIQKHLVRLLSVVLPNIKSEDTPCLLSIDLFHVLVGAVLAFPSLYWDDPVDLQPSSVSSSYNHLYLFHLITMAHMLQILLTVDTGLPLAQVQEDSEEAHSASSFFAEISQYTSGSIGCDIPGWYLWVSLKNGITPYLRCAALFFHYLLGVTPPEELHTNSAEGEYSALCSYLSLPTNLFLLFQEYWDTVRPLLQRWCADPALLNCLKQKNTVVRYPRKRNSLIELPDDYSCLLNQASHFRCPRSADDERKHPVLCLFCGAILCSQNICCQEIVNGEEVGACIFHALHCGAGVCIFLKIRECRVVLVEGKARGCAYPAPYLDEYGETDPGLKRGNPLHLSRERYRKLHLVWQQHCIIEEIARSQETNQMLFGFNWQLL
modifications: biotinylated in cells by MLC1-Bir*
notes: Ubr1, endogenous, detected with anti-Ubr1 (Abcam)
B1: the “fold biotinylation against MLC1-wt” value in experiment [2] is around 8 fold.

Values taken from article PMC8888484, “Ubr1-induced selective endophagy/autophagy protects against the endosomal and Ca^2+-induced proteostasis disease stress” (Cellular and Molecular Life Sciences: CMLS, 2022).
